{
  "source": "the nanobody polyreactivity screen of Harvey et al. (2022)",
  "data": [
    {"test": "yeast display, Sf9 membrane polyspecificity reagent, FACS + sequencing; frameworks hold sequencing errors", "how_it_was_run": "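In a synthetic yeast display library (Saccharomyces cerevisiae BJ5465), nanobody expression was induced with galactose for 36–48 hours. FACS gates were set low and high (top ~1%) using anti-HA fluorescence for expression and streptavidin fluorescence for binding of the Sf9 membrane reagent. Each polyreactivity label is drawn from the gate of origin.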", "values": [
      {"sequence": "QVQLVESGGGLVQAGGSLRLSCAASGSTFKIYAMGWYRQAPGKERELVARITGRGGSTYYADSVKGRFTISRDNAKNTVYLQMNSLKPEDTAVYYCAREWYQYSPYHRFDYWGQGTQVTVSS", "polyreactivity (PSR sort gate)": "high polyreactivity"},
      {"sequence": "QVQLVESGGGLVQAGGSLRLSCAASGSTFSYYAMGWYRQAPGKERELVAVISWSGGSTYYADSVKGRFTISRDNAKNTVYLQMNSLKPEDTAVYYCAARGYVRWYNRYDYWGQGTQVTVSS", "polyreactivity (PSR sort gate)": "low polyreactivity"},
      {"sequence": "QVHLVESGGGLVQAGGSLRLSCAAYGRIFKNYAMGWYRQAPGKESELVAAISWSGGRTYYADSVKGRFTISRDNAKNTVYLQMNSLKPEDTAVYYCATAARRGTSSIEPFGYGSWGQGTQVTVSS", "polyreactivity (PSR sort gate)": "high polyreactivity"},
      {"sequence": "QVHLVESGGGLVQAGGSLRISCAASGSSFSIYAMGSYRQAPGKERELVAAITCTVGSTYYADSVKGRFTISRDIAKYTVYLPLNSLKPEDTAVYYFAARQVNYDYDFWGQGTQVTVSS", "polyreactivity (PSR sort gate)": "low polyreactivity"},
      {"sequence": "QVQLVESGGGLVQAGGSLRLSCAASGFTFRYYAMGWYRQAPGKEREFVAAITYNGVSTYYADSVKGRFTISRDNAKNTVYLQMNSLKPEDTAVYYCAADVLLSRSNTPQRPSRLYYWGQGTQVTVSS", "polyreactivity (PSR sort gate)": "high polyreactivity"},
      {"sequence": "QVQLVESGGGLVQAGGSLRLSCAASGSIFLRYTMGWYRQAPGKETEFVAAITWTADSTYYADSVKGRFTISRDNAKNTVYLQMNSLKPEDTAVYYCAASYSTIWTLYYYWGQGTQVTVSS", "polyreactivity (PSR sort gate)": "low polyreactivity"},
      {"sequence": "QVQLVESGGGLVQAGGSLRLSCAASGSIFLPYAMGWYRQAPGKERELVAAITWGGDSTYADSVKGRFTISRDNAKNTVYLQMNSLKPEDTAVYYCAAGAGFESDYWGQGTQVTVSS", "polyreactivity (PSR sort gate)": "low polyreactivity"},
      {"sequence": "QVQLVESGGGLVQAGGSLRLSCAASGSTFLRYAMGWYRQAPGKERELVAAINLSGDRTYYADSVKGRFTISRDNAKNTDYVQMNSLKPEDTAVYYCAARWWGPSYDAYDYWVQGTQVTVSS", "polyreactivity (PSR sort gate)": "low polyreactivity"},
      {"sequence": "QVQLVESGVGLVQAGGSLRLSCAASGRIFYGYAMGWYRQAPGKEREFVARINVSGTSTFYADSVKGRFTISRDNAKNTVYLQMSSLKPEDTAVYDCAARGLPPNDYCYVHGYIMDYWGQGTQVTVSS", "polyreactivity (PSR sort gate)": "low polyreactivity"},
      {"sequence": "QVQLVESGGGLVQAGGSLRLSCAASGSTFVDNAMGWYRQAPGKERELVADISSGGSTYYADSVKGRFTISRDNAKNTVYLQMNSLKPEDTAVYYCAARRITSTDEYYWGQGTQVTVSS", "polyreactivity (PSR sort gate)": "high polyreactivity"},
      {"sequence": "QVQLVESGGGLVQAGGSLRLSCAASGSTFASNAMGWYRQAPGKERELVAAITSRDASTYYADSVKGRFTISRDNAKNTVYLQMNSLKPEDTAVYYCATDGYSPAAFDYWGQGTQVTVSS", "polyreactivity (PSR sort gate)": "low polyreactivity"},
      {"sequence": "QVQLVESGGGLVQAGGSLRLSCAASGRTFKIYAMGWYRQAPGKERELVAAISRGGRTYYADSVKGRFTISRDNAKNTVYLQMNSLKPEDTAVYYCAADLLISPEFYYWGQGTQVTVSS", "polyreactivity (PSR sort gate)": "high polyreactivity"},
      {"sequence": "QVQLVESGGGVVQAGGSLRISCAASGRTFGVYVMGWYRQAPGKERELVAAISSSGGRTYYADSVKGRFTISRDNAKNTFYLQMNSLKPEDTAVFYCNAVRRREERDGPPNQMDYWGQGTQVTVSS", "polyreactivity (PSR sort gate)": "high polyreactivity"},
      {"sequence": "QVQLVESGGGLVQAGGSLRLSCAASGSIMGWSRQAPGTERELVAAISRGGSTYYADSVKGRFTISRDNAKNTVYLQMNSLKPEDTAVYYCAAKTGGSRSRFEYWGQGTQVTVSS", "polyreactivity (PSR sort gate)": "high polyreactivity"},
      {"sequence": "QVQLVDSGGGLVQAGGSLRLSCAATGRIFAGYAMGGYRQAPGKERELVAAISDGGTTNYADSVKGRFTISRDNAKNTVYLQMNILKPEDTAVYYCAKDAAESYRYGYWGQGTQVTVSS", "polyreactivity (PSR sort gate)": "low polyreactivity"},
      {"sequence": "QVQLVESGGGLVQAGGSLRLSCAASGSIFKRYAMGWYRQAPGKERELVASISSRGSSTNYADSVKGRFTISRDNAKNTVYLQMNSLKPEDTAVYYCAAEVYRGKYWSTYRGGDYWGQGTQVTVSS", "polyreactivity (PSR sort gate)": "high polyreactivity"},
      {"sequence": "QVQLVESGGGLVQAGGSLRLSCAASGFTFSSNAMGWYRQAPGKERELVAAISFNSTSTYYADSVKGRFTISRDNAKNTVYLQMNSLKPEDTAVYYCAADVPRVQSEPEYDYWGQGTQVTVSS", "polyreactivity (PSR sort gate)": "low polyreactivity"},
      {"sequence": "QVQLVESGGGLVQAGGSLRLSCAASGITFRYYAMGWYRQAPGKERELVSVISKGGTSTYYADSVKGRFTISRDNAKITVYLQMNSLKPEDTAVYYCAAAYFSSGYKYYYWGQGNQVTVSS", "polyreactivity (PSR sort gate)": "high polyreactivity"},
      {"sequence": "QVQLVESGGGLVQAGGSLRLSCAASGITFGRYAMGWYRQAPGKERELVAAISWSGGSTYYADSVKGRFTISRDNAKNTVYLQMNSLKPEDTAVYYCATRIRTVAYNYWGQGTQVTVSS", "polyreactivity (PSR sort gate)": "high polyreactivity"},
      {"sequence": "KVQLVESGGGLVQAGGSLRLSCAASGSIFSFYTKGWYRQAPGKERELVAAINWSGSRTYYADSVKGRFTISRDNAKNTVYLQMNSLKPVDTAVYYCAAYLWFYVRYEYWGQGTQVTVSS", "polyreactivity (PSR sort gate)": "high polyreactivity"},
      {"sequence": "QVQLEESGGGLVQAGGSLRLSCSASGRIFSRNAMGWYRQAPGKERELVAAIRPRGGTTYYADSVKGRFTISRDNAKNTVYLQINSLKPYDTAVYYCATGGGRNSTDRRRLHYTYYYWGQGTQVTVSS", "polyreactivity (PSR sort gate)": "low polyreactivity"},
      {"sequence": "QVQLVESGGGLVQAGGSLRLSCAASGLISRINAMGWYRQAPGKERELVAAISSGGSTNYADSVKGRFTISRDNAKNTVYLQMNSLKPEDTAVYYCAAGYIRKYSAFRYNYWGQGTQVTVSS", "polyreactivity (PSR sort gate)": "high polyreactivity"},
      {"sequence": "QVQLVESGGGLVQAGGSLLLSCAASGITFFTYAKGWYRQAPGKERELDAAISGSGGSTYYADSVKGRFTISRDNAKKTVYLQMNSLKPEDTAVYYCAAERENGDHYRYYYWGQGTQVTVSS", "polyreactivity (PSR sort gate)": "low polyreactivity"},
      {"sequence": "QVQLVESGGGLVQAGGSLRLTCAASGRIFGRNTMGWYRQAPGKEMELVAAISSSGGSTRYADSVKGRFTISRDNAKNTVYIQMNSLKPEDTALYYCAAVRNRHGYDYWGKGTQVTVSS", "polyreactivity (PSR sort gate)": "high polyreactivity"},
      {"sequence": "QVQLVESGGGLVQAGGSLRLSCAASGSTRRYFKGWYRQAPGKERELVAVISRGGSTYYADSVKGRFTISGDNAKNTVYLQMNSLKPEDTAVYYCNVQPVIPRGGDYWGQGTQVTVSS", "polyreactivity (PSR sort gate)": "high polyreactivity"},
      {"sequence": "QVQLVESGGGLLQAGGSLRFSWAASGFIFIINPMGWYRQAPGKERELVAGIRWSGGYKYYADSVKGRFTISRDNEKNTVYLQINSLKPEDTAVYYCNKDRGSLTLYTYDYWGQVTQVTVSS", "polyreactivity (PSR sort gate)": "low polyreactivity"},
      {"sequence": "QVQLVESGGGLVQAGGSLRLSCAASGSTFSKNAMAWYRQAPGKERELVASISSSGGSTYYADSVKGRFTISRDTAKNTVYLQLNSLKPEDTAVSYCATRRGRGYYYWGQGTQVTVSS", "polyreactivity (PSR sort gate)": "high polyreactivity"},
      {"sequence": "QVQLVETGGGLVQAGGSLRLSSAASGFIFGTYTMGWYRQAPGKERELVAAISTSSGSTYYADSVKGRFTISRDNAKNTVYLQMNSLKPEDTAVYYCAAPTRSYGTPPYDYWGQGTQVTVSS", "polyreactivity (PSR sort gate)": "low polyreactivity"},
      {"sequence": "QVQLVESGGGLVQAGGSLRLSCAASGFTFLIYAMGWYIQAPGKERELVADISYNDDITYYADSVKGRFTISRDNAKNTVYLQMNSLKPEDTAVYYCAADYVNPELDYWGQGTQVTVSS", "polyreactivity (PSR sort gate)": "low polyreactivity"},
      {"sequence": "QVQLVESGGGLVQAGGSLRLSCAASGFIFYYYAMGWYRQAPGKERELVAAISRSGGSTYYADSVKGRFTISRDNAKNTVYLQMNSLKPEDTAVYYCAVYGYYALTHWEYDYWGQGTQVTVSS", "polyreactivity (PSR sort gate)": "high polyreactivity"},
      {"sequence": "QVQLVESGGGLVQAGGSLRLSCAASGSIFRYYDMGWYRQAPGKERELVAAISTSGVRTNYADSVKGRFTISRDNAKNTVYLQMNSLKPEDTAVYYCAARSQIYYRYRSYGYWGQGTQVTVSS", "polyreactivity (PSR sort gate)": "high polyreactivity"},
      {"sequence": "QFQLVESGGGLVQAGGSLRLSCAASGRIRDNARGWYRQAPGKERELVAAISSSGGSTYYADSVKGRFTISRDNAKNTVYLQMNSLKPEDTAVYYCNAVRTGKIFGSWGQGTQVTVSS", "polyreactivity (PSR sort gate)": "high polyreactivity"},
      {"sequence": "QVQLVESGGGLVQAGGSLRLSCAASGSTFLINAMGWYRQAPGKERELVAAISRDGSTNYADSVKGRFTISRDNAKNTVYLQMNSLKPEDTAVYYCAAVPGISVGRQPGYDYDYWGQGTQVTVSS", "polyreactivity (PSR sort gate)": "low polyreactivity"},
      {"sequence": "QVQLVESGGGLVQAGGSLRLSCAASGSIFGPYAMGWYRQAPGKERELVAAISLGGGSTSYADSVKGRFTISRDNAKNTVYLQMNSLKPEDTAVYYCATEDFRTDTGMYYWGQGTQVTVSS", "polyreactivity (PSR sort gate)": "low polyreactivity"},
      {"sequence": "QVHLVESGGGLVQAGGSLRLSCAASGSTFFQYAMGWYRQAPGKERELVAAISSRGGRTYYADSVKGRFTISRDNAKNTVYLQMNRLKPEDTAVYYCATNRSVSYPYDGYYYWGQGTQVTVSS", "polyreactivity (PSR sort gate)": "high polyreactivity"},
      {"sequence": "QVQLVESGGGLVQAGASLRLSCAASGITFLDYAMGWYRQAPGTEREMVAVITWNDGSTYYADSVKGRFTISRDNAKNTVYLQMNSLKPEDTAVYYCAAEYADSWSAFDWNYYYWGQGTQVTVSS", "polyreactivity (PSR sort gate)": "high polyreactivity"},
      {"sequence": "QVQLVESGGGLVQAGRSLRLSCAASGRIFSDYAMGWYRQAPGKERELVATITSGDSTNYADSVKGRFTISRDNAKNTVYLQMNSLNPEDTAVYYCNADRFADYDYWGQGTQVTVST", "polyreactivity (PSR sort gate)": "low polyreactivity"},
      {"sequence": "QVQLVESGGGLVHAGGSLLLSCSASRSIFDLYAMGGYRQAPGKERELVADISIADSTNYADSVKGRFTISRDNAKNTVYLKMNSLKPEDTAVYYCKDDVWWYCYEYDYWGQGTEVTVSS", "polyreactivity (PSR sort gate)": "low polyreactivity"},
      {"sequence": "QVQLVESGGGLVQAGGSLRLSCAASGRIFYFNSMGWYRQAPGKEREFVAAISGSGGDTYYADSVKGRFTISRDIAKNTVYLQMNSLKPEDTAVYYCAAEVYTWGQGTQVTVSS", "polyreactivity (PSR sort gate)": "low polyreactivity"},
      {"sequence": "QVQLVEAGGGLVQAGGSLRLSCAPSGFTFGSYARRCYRQAPGKERELVAAIRLSGGSTTYADSVKGRFTITRDNEKKTVYLQMNSLKAEDTAVYYCAARVHVGYYWTFYYWGQGTQVTVSS", "polyreactivity (PSR sort gate)": "high polyreactivity"},
      {"sequence": "QVQLVESGGGLVQAGGSLRLSCAASGRIFGYNAMGWYRQAPGNERELVAAITNGGSTNYADSVKGRFTISRDNAKNTVYLQINSLKPEDTAVYYCAVKWYPPGHDYWGQGTQVTVSS", "polyreactivity (PSR sort gate)": "low polyreactivity"},
      {"sequence": "QVQLVESGGGLVQAGGSLRLSCAASGRTFRWNAMGWYRQAPGKERELVATIRSGDSTNYADSVKGRFTISRDNAKNTVYLQMNSLKPEDTAVYYCAAEGVSKVYWGYFGSYDYWGQGTQVTVSS", "polyreactivity (PSR sort gate)": "low polyreactivity"},
      {"sequence": "QVQLVESGGGLVQAGGSLRLSCAASGRIFPRYAMAWYRQAPGKERELVARITRRGGITYYADSVKGRFTISRDNAKNTVYLQMNSLKPEDTAVYYCNVDYYRGGDFSYGYDYWGQGTQVTVSS", "polyreactivity (PSR sort gate)": "high polyreactivity"}
    ]}
  ]
}
